Assay: yeast display, Sf9 membrane polyspecificity reagent, FACS + sequencing; frameworks hold sequencing errors
Procedure, shortened: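 A synthetic nanobody library was expressed on Saccharomyces cerevisiae BJ5465 by galactose induction for 36–48 hours. The library was stained for 1 hour at 4 °C with 10% biotinylated, detergent-solubilized Sf9 membrane reagent and enriched with streptavidin microbeads before FACS. Low and high (top ~1%) gates were set on anti-HA fluorescence for expression and streptavidin fluorescence for reagent binding, and each polyreactivity label reflects the gate of origin.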

Q: For “QVQLVESGGGLVQAGGSLRLSCAASGNTFNNNAMGWYRQAPGKERELVAITGDGGSTYYADSVKGRFTISRDNAKNTVYLQMNSLKPEDTAVYYCAADYLYRYQTMGYWGQGTQVTVSS”, which “polyreactivity (PSR sort gate)” value is on record?
A: low polyreactivity

Q: Which “polyreactivity (PSR sort gate)” value does the source give for “QVQLVESGGGLVQAGGSLRLSCAASGNTFPLNAMGWYRQAPGKERELVAAISSSGRTYYADSVKGRFTISRDNAKNTVYLQMNSLKPEDTAVFYCNAKWRERGVRMDYWGQGTQVTVSS” here?
A: high polyreactivity

Q: For “QVQLVESGGGLVQAGGSLRLSCAASGNTFPVSYTMGWYRQAPGKEREFVAVITSGGGRTYADSVKGRFTISRDTAKNTVYLQMNSLKPEDTAVYYCAVRPRVSSWKFRSRRYGYWGQGTRVTVSS”, which “polyreactivity (PSR sort gate)” value is on record?
A: high polyreactivity

Q: With “QVQLVESGGGLVQAGGSLRLSCAASGNTFQRYTMGWYRQAPGKERELVAAINSSGGSTFYADSVKGRFTISRDNAKNTVYLQMNSLKPEDTAVYYCAASWHTPTVYDEYYYWGQGTQVTVSS” as the sequence, how does the “polyreactivity (PSR sort gate)” value read?
A: low polyreactivity

Q: Which “polyreactivity (PSR sort gate)” value does the source give for “QVQLVESGGGLVQAGGSLRLSCAASGNTFQYYAMGWYRQAPGKEREFVAAISRRGGSTYYADSVKGRFTISRDNAKNTVYLQMNSLKPEDTAVYYCNKVIVLSQSSYSFHYAYDYWGQGTQVTVSS” here?
A: high polyreactivity

Q: With “QVQLVESGGGLVQAGGSLRLSCAASGNTFRDYAMGWYRQAPGKERELVAAITSSGARTYYADSVKGRFTISRDNAKNTVYLQMISLKPEDTAVYYCAADWSGYYTYDYWGQGTQVTVSS” as the sequence, how does the “polyreactivity (PSR sort gate)” value read?
A: low polyreactivity

Q: For “QVQLVESGGGLVQAGGSLRLSCAASGNTFRHNTMGWYRQAPGKERELVSTNYADSVKGRFTISRDNAKNTVYLQMNSLKPEDTAVYYCNADGTFGYEYWGHGTQVTVSS”, which “polyreactivity (PSR sort gate)” value is on record?
A: low polyreactivity

Q: With “QVQLVESGGGLVQAGGSLRLSCAASGNTFRINAMGWYRQAPGKERELVAAISRSTGRTYYADSVKGRFTISRDNAKNTVYLQMNSLKPEDTAVYYCAAGYTGQEHDYWGLGTQVTVSS” as the sequence, how does the “polyreactivity (PSR sort gate)” value read?
A: high polyreactivity

Q: With “QVQLVESGGGLVQAGGSLRLSCAASGNTFRPYAMGWYRQAPGKERELVARIRYGGGSTYYADSVKGRFTISRDNAKNTVYLQMNSLKPEDTAVYYCAVYRDQYRNFYYWGLGTQVTVSS” as the sequence, how does the “polyreactivity (PSR sort gate)” value read?
A: high polyreactivity

Q: Which “polyreactivity (PSR sort gate)” value does the source give for “QVQLVESGGGLVQAGGSLRLSCAASGNTFRRYAMGWYRQAPGKERELVAAITGGTRTYYADSVKGRFTISRDNAKNTVYLQMISLKPEDTAVYYCAARLTSRSYRYDYWGQGTQVTVSS” here?
A: high polyreactivity

Q: For “QVQLVESGGGLVQAGGSLRLSCAASGNTFRWYAMGWYRQAPGKEREFVADITVRGGSTYYADSVKGRFTISRDNAKNTVYLQMNSLKPEDTAVYYCASYHYYTYDYWGQGTQVTVSS”, which “polyreactivity (PSR sort gate)” value is on record?
A: low polyreactivity

Q: With “QVQLVESGGGLVQAGGSLRLSCAASGNTFRWYAMGWYRQAPGKERELVAAITWSGGSTYYADSVKGRFTISRDNAKNPVYLQMNSLKPEDTAVYYCAARRWAGEYDYWGQGTQVTVSS” as the sequence, how does the “polyreactivity (PSR sort gate)” value read?
A: low polyreactivity

Q: Which “polyreactivity (PSR sort gate)” value does the source give for “QVQLVESGGGLVQAGGSLRLSCAASGNTFSQYAMGWSRQAPGKERELVATISKSSGSTSYADSVKGRFTISRDNAKNTVYLQMNSLKPEDTAVYYCNADSSDVYHHLGVLFFSTWYDYWGQGTQVTVSS” here?
A: low polyreactivity

Q: Which “polyreactivity (PSR sort gate)” value does the source give for “QVQLVESGGGLVQAGGSLRLSCAASGNTFSVYTMGWYRQAPGKERELVAAITRGGDSTYYADSVKGRFTISRDNAKNTVYLQMNSLKPEDTAVYYCAADHDGPYAGYDSWGQGTQVTVSS” here?
A: low polyreactivity

Q: With “QVQLVESGGGLVQAGGSLRLSCAASGNTFSYNAMGWYRQAPGKEKELVAGITWSGGSTYYADSVKGRFTISRDNAKNTVYLQMNSLKPEDTAVYYCAKGYGSGVVRSRWSKYGYWGQGTQVTVSS” as the sequence, how does the “polyreactivity (PSR sort gate)” value read?
A: high polyreactivity

Q: Which “polyreactivity (PSR sort gate)” value does the source give for “QVQLVESGGGLVQAGGSLRLSCAASGNTFTAYVMGWYRQAPGKERELVAGISGRGSSTYYADSVKGRFTISRDNAKNTVYLQMNSLKQEDTAVYYCAAVRTLRTWVYGRYDYWGQGTQVTVSS” here?
A: high polyreactivity

Q: Which “polyreactivity (PSR sort gate)” value does the source give for “QVQLVESGGGLVQAGGSLRLSCAASGNTFTKYAMGWYIQAPGKERELVAGITRGGSTNYADSVKGRFTISRDNAKNTVYLQMNSLKPEDTAVYYCNARPVYGSRFYSAVRMEYWGQGTPVTVSS” here?
A: low polyreactivity

Q: With “QVQLVESGGGLVQAGGSLRLSCAASGNTFTRNAMGWYRQAPGKERELVAAISYSGGSTYYADSVKGRFTISRDNAKNTVYLQMNSLKPEDTAVYYCATKYYDRFSPYRGDYWGQGTQVTVSS” as the sequence, how does the “polyreactivity (PSR sort gate)” value read?
A: low polyreactivity

Q: With “QVQLVESGGGLVQAGGSLRLSCAASGNTFVFYAMGWYRQAPGKERELVAAIDTGGTTNYADSVKGRFTISRDNAKNTVYLQMNSLKPEDTAVYYCAKRRLYWSGQGWVRTYGYWGQGTQVTVSS” as the sequence, how does the “polyreactivity (PSR sort gate)” value read?
A: high polyreactivity

Q: With “QVQLVESGGGLVQAGGSLRLSCAASGNTFVFYTMGWSRQAPGKERELVAAITSSGVRTSYADSVKGRFSISRDNAKNTVYLQMNSLKPEDTAVYYCAASLRASPSFGYWGQGTQVTVSS” as the sequence, how does the “polyreactivity (PSR sort gate)” value read?
A: high polyreactivity

Q: With “QVQLVESGGGLVQAGGSLRLSCAASGNTFVGYTMGWYRHAPGKERELVAAISWNGGTTYYADSVKGRFTISRDNAKNTVYLQMNSLKPEDTAVYYCNTRWYTRRFDYWGQGTQVTVSS” as the sequence, how does the “polyreactivity (PSR sort gate)” value read?
A: high polyreactivity

Q: With “QVQLVESGGGLVQAGGSLRLSCAASGNTFVSNAMGWYRQAPGKERELVAAIDSGGSTNYADSVKGRFTISRDNAKNTVYLQMNRLKPEDTAVYYCNRTSVYYYYWGQGTQVTVSS” as the sequence, how does the “polyreactivity (PSR sort gate)” value read?
A: low polyreactivity

Q: For “QVQLVESGGGLVQAGGSLRLSCAASGNTFWDNAMGWYRQAPGKERELVAAIRWSTASTHYADSVKGRFTISRDNAKNTVYFPMNSLKPEDTAVYYCAATDYYYYRDKYYGYDNWGQGTQVTVSS”, which “polyreactivity (PSR sort gate)” value is on record?
A: low polyreactivity

Q: Which “polyreactivity (PSR sort gate)” value does the source give for “QVQLVESGGGLVQAGGSLRLSCAASGNTFYANTMGWYRQARTERELVAAITSGTYADSVKGRFTISRDNAKNTVYLQMNSLKPEDTAVYYCAREESLYVTDPGPSKLDYWGQGTQVTVSS” here?
A: low polyreactivity

Q: Which “polyreactivity (PSR sort gate)” value does the source give for “QVQLVESGGGLVQAGGSLRLSCAASGNTFYGYAMGWYRQAPGKDRELVASITLSGDSTYYADSVKGRFTISRDNAKNTVYLQMNSLKQEDTAVYYCAGVYTYPLGYYHYTYDYWGQGTQVTVSS” here?
A: low polyreactivity

Q: With “QVQLVESGGGLVQAGGSLRLSCAASGNTFYGYAMGWYRQAPGKERVLVATIDSGGSTNYADSVKGRFTISRDNAKNTVYFQMNSLKPEDTAVYYCAADGVWYYNDMDYWGQGTQVTVSS” as the sequence, how does the “polyreactivity (PSR sort gate)” value read?
A: low polyreactivity

Q: Which “polyreactivity (PSR sort gate)” value does the source give for “QVQLVESGGGLVQAGGSLRLSCAASGNTFYGYVMGWYRQAPGKERELVAAISWSGGRTYYADSVKGRFTISRDNAKNTVYLQMNSLKPEDTAVYYCAAVLLYYIYDYWGQGTQVTVSS” here?
A: low polyreactivity

Q: Which “polyreactivity (PSR sort gate)” value does the source give for “QVQLVESGGGLVQAGGSLRLSCAASGNTFYPNAMGWYRKAPGKERELVAAISSSGGSTYYADSVKGRFTISRDNAKNTVYLQMNSLKPEDTAVYYRAAEFDYPWSGEYYYWGQGTQVTVSS” here?
A: high polyreactivity

Q: With “QVQLVESGGGLVQAGGSLRLSCAASGNTFYWNAMGWYRQAPGKERELVAAITSSGGSTYYADSVKGRITISRDNAKNTVYLQMNSLKPEDTAVYYCNKDIERYVRIYDSWGQGTQVTVSS” as the sequence, how does the “polyreactivity (PSR sort gate)” value read?
A: low polyreactivity

Q: For “QVQLVESGGGLVQAGGSLRLSCAASGNTFYYYAMGWYRQAPGKERELVAAIRRSGGTTYYADSVKGRFTISRDNAKNTVYLQMNSLKPEDTAVYYCAARVYRSYANVEGNYWGQGTQVTVSS”, which “polyreactivity (PSR sort gate)” value is on record?
A: high polyreactivity

Q: Which “polyreactivity (PSR sort gate)” value does the source give for “QVQLVESGGGLVQAGGSLRLSCAASGNTFYYYCMGWYRQAPGKERELVAAISSSGTSTYYADSVKGRFTISRDNAKNTVYLQMNSLKPEDTAVYYCARRTDRRTGPMYSWGQGTQVTVSS” here?
A: high polyreactivity

Q: For “QVQLVESGGGLVQAGGSLRLSCAASGNTIDSYAMGWYRQAPGKERELVAAISTSGGSTYYADSVKGRFTISRDNAKNTVYLQMNSLKPEDTAVYYCNATWTITYDYWGQGTQVTVSS”, which “polyreactivity (PSR sort gate)” value is on record?
A: low polyreactivity

Q: For “QVQLVESGGGLVQAGGSLRLSCAASGNTIIRYPMGWYRQAPGKERELVAAISYSGGRTYYADSVKGRFTISRDNAKNTVYLQMNSLKPEDTAVYYCNAASRYGGDYWGQGTQVTVSS”, which “polyreactivity (PSR sort gate)” value is on record?
A: high polyreactivity

Q: Which “polyreactivity (PSR sort gate)” value does the source give for “QVQLVESGGGLVQAGGSLRLSCAASGNTLDYYAMGWYRQAPGKEREVVEGIDDRTSTNYADSVKGRFTISRDNAKYTVYLQMNSLKPEDTAVYYCNADDGTVNYTSYYSPAVTYDSWGQGTQVTVSS” here?
A: low polyreactivity

Q: Which “polyreactivity (PSR sort gate)” value does the source give for “QVQLVESGGGLVQAGGSLRLSCAASGNTLGYYAMGWYRQAAGKARELVATICDDGTTYYADSVKGRFTISRDNAMNTVYLQMNSLSPEETAVYYCASVGSAQYSMDYWGDGTQVTVSS” here?
A: low polyreactivity

Q: Which “polyreactivity (PSR sort gate)” value does the source give for “QVQLVESGGGLVQAGGSLRLSCAASGNTLRYNVMGWYRQAPGKERELVAAISGGGSTSYTDSVKGRFTISRDNAKNTVYLQMNSLKPEDTAVYYCAKRSFVGGRGRDSDYWGQGTQVTVSS” here?
A: low polyreactivity

Q: For “QVQLVESGGGLVQAGGSLRLSCAASGNTVDGNAMGWYRPAPGKERELVAAINYSGASTYYADSVKGRFTISRDNAKNTVYLQINSLKPEDTAVYYCAADDYTASDRYWHDYWGQGTQVTVSS”, which “polyreactivity (PSR sort gate)” value is on record?
A: low polyreactivity

Q: Which “polyreactivity (PSR sort gate)” value does the source give for “QVQLVESGGGLVQAGGSLRLSCAASGNTYLYYGMGWYRQSPGKERDLVAAITQSGGTTYYADSVKGRFTISRDNAKNTVYLQLNSLKQEDTAVYYCAATRYYYYWYVYDDRGDYWGQGTQVTVSS” here?
A: low polyreactivity

Q: Which “polyreactivity (PSR sort gate)” value does the source give for “QVQLVESGGGLVQAGGSLRLSCAASGPIFTSNAMGWYRQAPGKERELVAAISRRGTRTYYADSVKGRFTISRDNAKNTVYLQMNSLKPEDTAVYYCAAGWTTRYFGGVDYWGQGTQVTVSS” here?
A: high polyreactivity

Q: Which “polyreactivity (PSR sort gate)” value does the source give for “QVQLVESGGGLVQAGGSLRLSCAASGPIFVYYARGWYREAPGKEREFVAAISASGGSTYYADSVKGRFTISRDTAKNTVYLQMNSLKPEDPAVYYCAADRLRNRPRGLREYYWGQGTQVTVSS” here?
A: low polyreactivity

Q: With “QVQLVESGGGLVQAGGSLRLSCAASGPILGQYAMGGYRQAPGKERELVAAITYSGGRTYYADSVKGRFTISRDIAKNTVYLQMNSLKPEDTAVYYCAARGRASVERRGGYYYWGQGTQVTVSS” as the sequence, how does the “polyreactivity (PSR sort gate)” value read?
A: high polyreactivity

Q: Which “polyreactivity (PSR sort gate)” value does the source give for “QVQLVESGGGLVQAGGSLRLSCAASGPTFAKNTMGWYRQAPGKERELVAAISWRGGRTYYADSVKGRFTISRDNAKNTVYLQMNSLKPEDTAVYYCAAASTIHRHGMDYWGQGTQVTVSS” here?
A: high polyreactivity

Q: For “QVQLVESGGGLVQAGGSLRLSCAASGPTFGGYTMGWYRQAPGKERELVAAITWSGGRTYYADSVKGRFTISRDNAKNTVYLQMNSLKPEDTAVYFCATSRSRERPLHNGPYYYWGLGTQVTVSS”, which “polyreactivity (PSR sort gate)” value is on record?
A: high polyreactivity
